B1: YL-G1-19-01 (antibody, human IgG1, kappa, V domains shown)
VH: QVQLQQSGAELVRPGTSVKVSCKASGYAFTNYLIEWVKQRPGQGLEWIGVINPGSGGTNYNEKFKGKATLTADKSSNTAYMQLSSLTSEDSAVYFCARVYYGNSFGYWGQGTLVTVSA
VL: DIVMTQSPSSLTVTAGEKVTMSCKSSQSLLNSGNQKNYLTWYQQKPGQPPKLLIYWASTRESGVPDRFTGSGSGTDFTLTISSVQAEDLAVYYCQNEYFYPFTFGSGTKLEIKR
notes: also called 1st generation chimeric antibody
B2: YL-G1-19-02 (antibody, human IgG1, kappa)
heavy: not shown
light: DIVMTQSPSSLTVTAGEKVTMSCKSSQSLLNSGNQKNYLTWYQQRPGQPPKLLIYWASTRESGVPVRFTGSGSGTDFTLTISSVQAEDLAVYYCQNAYIYPLTFGTGTKLELKRTVAAPSVFIFPPSDEQLKSGTASVVCLLNNFYPREAKVQWKVDNALQSGNSQESVTEQDSKDSTYSLSSTLTLSKADYEKHKVYACEVTHQGLSSPVTKSFNRGEC
notes: also called YL-G1-02; YL-G-19-02

Biological target: T1, human CLDN18.2 expressed on cells (human)
T1 construct: Tight junction membrane protein; also called huCLDN18.2
Test: flow cytometry (geometric mean) on CLDN18.2-expressing 293T cells, Alexa Fluor 647 anti-human IgG Fc secondary
Protocol: CLDN18.2-expressing 293T cells and CLDN18.1-expressing 293T cells at a density of 2×10⁶ cells/ml in FACS buffer ([…]) were mixed with a dilution series ([…] in FACS buffer) of the chimeric antibodies, the reference antibody, or a IgG negative control (50 μL) in a 96-well V-bottom plate and incubated for 30 min on ice. After a wash with 200 μL/well FACS buffer, cells were resuspended in 30 μL/well secondary antibody Alexa Fluor® 647 AffiniPure Goat Anti-Human IgG, […] specific (Jackson, Cat. #109-605-098) and incubated for 20 min on ice. After three washes with 200 μL/well FACS buffer, cells were resuspended with 150 μl/well FACS buffer and subjected to FACS using BD LSR II Flow Cytometer (HTS). Geometric mean was used for data analysis and plots were made using Prism GraphPad.

| Binder | EC50 (read off the curve) [mg/L] |
| --- | --- |
| B1 | ~0.8 |
| B2 | ~0.6 |

Source: US20250263482A1 (SHIJIAZHUANG YILING PHARMACEUTICAL, published 2025)
